From PMC12809078

Target: full-length SUMO-CtBP2 (human) (UniProt P56545)
Assay: SEC; Superose 6 Increase 10/300 GL; 20 mM Tris-HCl pH 8.0, 150 mM NaCl, 2 mM DTT; 0.35 ml/min

- stoichiometry N: 4
Substance: full-length SUMO-CtBP2, P56545 1-445 (natural protein; other documents disagree on this pair)
